From the MegaScale stability set (Tsuboyama et al. 2023) come the findings set out here.

The chains are these.
B1: 2K2A (parent)
chain: ELREAFRLYDKEGNGYISTDVMREILAELDETLSSEDLDAMIDEIDADGSGTVDFEEFMGVMT

The series covers variants of B1. As to the kind of experiment: folding stability dG (cDNA display proteolysis); higher = more stable. The conditions noted are these: PBS, room temperature.
As for Y9Q, the “folding stability dG” value stood at 0.85 kcal/mol.

Consider Y9W, for which the “folding stability dG” value came to 2 kcal/mol.

As for Y9F, the “folding stability dG” value was found to be 1.59 kcal/mol.

With Y9C, the “folding stability dG” value is 1.94 kcal/mol.

As to Y9G, the “folding stability dG” value turned out to be 0.24 kcal/mol.

Turning to Y9H, the “folding stability dG” value came out at 1.59 kcal/mol.

With Y9A, the “folding stability dG” value stood at 1.56 kcal/mol.

Consider Y9R, for which the “folding stability dG” value stood at 1.32 kcal/mol.

For the variant Y9L, the “folding stability dG” value was determined as 2.07 kcal/mol.

On to S50D, for which the “folding stability dG” value turned out to be 1.33 kcal/mol.

Regarding S50L, the “folding stability dG” value was found to be 1.22 kcal/mol.

For the variant S50R, the “folding stability dG” value amounted to 1.61 kcal/mol.

In the case of S50G, the “folding stability dG” value is 1.05 kcal/mol.

Regarding F58A, the “folding stability dG” value turned out to be 0.332 kcal/mol.

M59P: the “folding stability dG” value was -0.961 kcal/mol.

With M59E, the “folding stability dG” value is 1.41 kcal/mol.

As to M59Q, the “folding stability dG” value was 1.65 kcal/mol.

On to I25Y, for which the “folding stability dG” value worked out at 0.879 kcal/mol.

With I25H, the “folding stability dG” value is -0.033 kcal/mol.

For E44Y, the “folding stability dG” value came out at 2.02 kcal/mol.

Turning to E44A, the “folding stability dG” value was 2.12 kcal/mol.

For E44G, the “folding stability dG” value stood at 1.85 kcal/mol.

E44S: the “folding stability dG” value is 2.02 kcal/mol.

With M62I, the “folding stability dG” value was 1.48 kcal/mol.

In the case of M62P, the “folding stability dG” value stood at 0.128 kcal/mol.

Consider M62N, for which the “folding stability dG” value turned out to be 0.258 kcal/mol.

Take D46R: the “folding stability dG” value turned out to be 0.799 kcal/mol.

For the variant D46Q, the “folding stability dG” value worked out at 0.665 kcal/mol.

Take D46H: the “folding stability dG” value was determined as 0.812 kcal/mol.

Take D20P: the “folding stability dG” value came out at 1.15 kcal/mol.

As for D20R, the “folding stability dG” value amounted to 2.23 kcal/mol.

As for D20G, the “folding stability dG” value was 1.89 kcal/mol.

As to D20Q, the “folding stability dG” value was determined as 2.33 kcal/mol.

For E56L, the “folding stability dG” value was 1.88 kcal/mol.

For the variant E56K, the “folding stability dG” value was 1.77 kcal/mol.

E56N: the “folding stability dG” value is 1.86 kcal/mol.

Regarding E56V, the “folding stability dG” value turned out to be 1.75 kcal/mol.

Turning to E56M, the “folding stability dG” value turned out to be 1.64 kcal/mol.

Turning to E56F, the “folding stability dG” value was 2.04 kcal/mol.

As for G15Q, the “folding stability dG” value came out at 0.45 kcal/mol.

In the case of G15C, the “folding stability dG” value turned out to be 1.1 kcal/mol.

G15Y: the “folding stability dG” value is 0.571 kcal/mol.

With G15V, the “folding stability dG” value is 0.459 kcal/mol.

For G49F, the “folding stability dG” value was 1.01 kcal/mol.

In the case of G49W, the “folding stability dG” value was determined as 0.635 kcal/mol.

Regarding G49C, the “folding stability dG” value was determined as 1.71 kcal/mol.

With G49V, the “folding stability dG” value was 0.799 kcal/mol.

Regarding E4Y, the “folding stability dG” value was 1.43 kcal/mol.

Consider E4N, for which the “folding stability dG” value stood at 1.4 kcal/mol.

In the case of T52N, the “folding stability dG” value worked out at 1.49 kcal/mol.

For T52D, the “folding stability dG” value is 0.729 kcal/mol.

For T52I, the “folding stability dG” value was determined as 1.64 kcal/mol.

With S35Y, the “folding stability dG” value was 1.53 kcal/mol.

Turning to S35C, the “folding stability dG” value stood at 1.64 kcal/mol.

Regarding G13F, the “folding stability dG” value amounted to 0.932 kcal/mol.

As for G13C, the “folding stability dG” value stood at 1.5 kcal/mol.

Take G13N: the “folding stability dG” value was found to be 1.74 kcal/mol.

Turning to F55E, the “folding stability dG” value came out at 1.33 kcal/mol.

As to F55H, the “folding stability dG” value was determined as 0.24 kcal/mol.

With K11C, the “folding stability dG” value stood at 2.07 kcal/mol.

For K11Y, the “folding stability dG” value amounted to 1.63 kcal/mol.

For K11H, the “folding stability dG” value was found to be 1.69 kcal/mol.

K11S: the “folding stability dG” value amounted to 1.74 kcal/mol.

With K11D, the “folding stability dG” value worked out at 0.997 kcal/mol.

On to R3A, for which the “folding stability dG” value is 1.99 kcal/mol.

Turning to R3H, the “folding stability dG” value turned out to be 1.71 kcal/mol.

For R3D, the “folding stability dG” value stood at 1.62 kcal/mol.

With R3F, the “folding stability dG” value is 2.11 kcal/mol.

With V53K, the “folding stability dG” value is -0.419 kcal/mol.

As for V53M, the “folding stability dG” value stood at 0.875 kcal/mol.

Regarding N14K, the “folding stability dG” value is 2.09 kcal/mol.

In the case of N14M, the “folding stability dG” value amounted to 1.78 kcal/mol.

Take N14Y: the “folding stability dG” value was 1.6 kcal/mol.

For L26Y, the “folding stability dG” value came out at 0.295 kcal/mol.

Regarding L26A, the “folding stability dG” value is 0.083 kcal/mol.

Consider G60A, for which the “folding stability dG” value was determined as 2.53 kcal/mol.

G60L: the “folding stability dG” value turned out to be 2.46 kcal/mol.

G60Y: the “folding stability dG” value came to 2.57 kcal/mol.

For the variant G60K, the “folding stability dG” value came to 2.69 kcal/mol.

Take G60E: the “folding stability dG” value amounted to 1.85 kcal/mol.

For the variant G60Q, the “folding stability dG” value is 2.32 kcal/mol.

On to D37F, for which the “folding stability dG” value was 1.22 kcal/mol.

Regarding D37W, the “folding stability dG” value was 1.56 kcal/mol.

D37P: the “folding stability dG” value is -0.169 kcal/mol.

Regarding D10C, the “folding stability dG” value is 2.18 kcal/mol.

For the variant D10N, the “folding stability dG” value was -0.227 kcal/mol.

On to A27W, for which the “folding stability dG” value is 1.73 kcal/mol.

As for A27E, the “folding stability dG” value was 1.12 kcal/mol.

For the variant A27G, the “folding stability dG” value is 1.47 kcal/mol.

As for A27I, the “folding stability dG” value came out at 1.87 kcal/mol.

For E57I, the “folding stability dG” value came out at 1.97 kcal/mol.

On to M41A, for which the “folding stability dG” value is 1.27 kcal/mol.

M41Q: the “folding stability dG” value amounted to 0.887 kcal/mol.

In the case of M41V, the “folding stability dG” value was 1.21 kcal/mol.

Turning to M41C, the “folding stability dG” value came out at 1.37 kcal/mol.

On to M41P, for which the “folding stability dG” value was -0.862 kcal/mol.

For M41E, the “folding stability dG” value is -0.173 kcal/mol.

Consider T32Y, for which the “folding stability dG” value worked out at 1.54 kcal/mol.

Take T32P: the “folding stability dG” value worked out at 0.441 kcal/mol.

With T32N, the “folding stability dG” value turned out to be 1.86 kcal/mol.

On to T32R, for which the “folding stability dG” value was 1.74 kcal/mol.

Regarding D30M, the “folding stability dG” value was 1.95 kcal/mol.

Take D30R: the “folding stability dG” value amounted to 1.72 kcal/mol.

Turning to D30F, the “folding stability dG” value stood at 2.19 kcal/mol.

Take D30G: the “folding stability dG” value turned out to be 1.13 kcal/mol.

On to E24F, for which the “folding stability dG” value came out at 2.32 kcal/mol.

Consider E24D, for which the “folding stability dG” value was determined as 1.77 kcal/mol.

As to E24Q, the “folding stability dG” value is 2.48 kcal/mol.

On to E24M, for which the “folding stability dG” value was 2.52 kcal/mol.

As for E24H, the “folding stability dG” value stood at 2.14 kcal/mol.

As to E28K, the “folding stability dG” value is 2.52 kcal/mol.

As for E28R, the “folding stability dG” value came out at 2.59 kcal/mol.

On to S34A, for which the “folding stability dG” value is 1.26 kcal/mol.

Turning to S34Y, the “folding stability dG” value came out at 0.751 kcal/mol.

Regarding L29V, the “folding stability dG” value amounted to 1.28 kcal/mol.

Turning to L29H, the “folding stability dG” value is 1.73 kcal/mol.

With L29G, the “folding stability dG” value is 0.955 kcal/mol.

Consider L29C, for which the “folding stability dG” value came out at 2.18 kcal/mol.

For L29A, the “folding stability dG” value came to 1.52 kcal/mol.

In the case of V61C, the “folding stability dG” value came to 1.86 kcal/mol.

In the case of V61Q, the “folding stability dG” value was determined as 0.902 kcal/mol.

Regarding D43Y, the “folding stability dG” value is 2.16 kcal/mol.

D43E: the “folding stability dG” value was determined as 2.03 kcal/mol.

D43V: the “folding stability dG” value is 1.96 kcal/mol.

As for E1H, the “folding stability dG” value came to 2.1 kcal/mol.

Regarding E1W, the “folding stability dG” value was found to be 2.65 kcal/mol.

L33M: the “folding stability dG” value amounted to 1.41 kcal/mol.

For the variant L33P, the “folding stability dG” value was -0.18 kcal/mol.

Regarding I17Y, the “folding stability dG” value is -0.493 kcal/mol.

With I17C, the “folding stability dG” value stood at 0.277 kcal/mol.

On to Y16G, for which the “folding stability dG” value was -0.095 kcal/mol.

In the case of Y16H, the “folding stability dG” value was 1.21 kcal/mol.

Consider Y16N, for which the “folding stability dG” value stood at 0.623 kcal/mol.

For L8W, the “folding stability dG” value came out at 1.83 kcal/mol.

For L8A, the “folding stability dG” value came to 2.18 kcal/mol.

As to R7S, the “folding stability dG” value worked out at 1.97 kcal/mol.

On to R7L, for which the “folding stability dG” value amounted to 1.93 kcal/mol.

Turning to R7H, the “folding stability dG” value was found to be 1.72 kcal/mol.

R7E: the “folding stability dG” value came to 1.8 kcal/mol.

R7Q: the “folding stability dG” value came to 1.96 kcal/mol.

Turning to R7T, the “folding stability dG” value amounted to 1.75 kcal/mol.

As to R7K, the “folding stability dG” value worked out at 2.12 kcal/mol.

Regarding L2H, the “folding stability dG” value amounted to 1.16 kcal/mol.

As to L2F, the “folding stability dG” value was found to be 1.88 kcal/mol.

Turning to L2Q, the “folding stability dG” value came out at 0.705 kcal/mol.

As for L2A, the “folding stability dG” value was 1.23 kcal/mol.

Take L2K: the “folding stability dG” value turned out to be 0.383 kcal/mol.

With L2I, the “folding stability dG” value stood at 1.51 kcal/mol.

Consider E12F, for which the “folding stability dG” value was determined as 1.45 kcal/mol.

For E12N, the “folding stability dG” value stood at 1.52 kcal/mol.

For E12A, the “folding stability dG” value came to 1.57 kcal/mol.

Turning to E12Y, the “folding stability dG” value came to 1.2 kcal/mol.

With E12M, the “folding stability dG” value was determined as 1.53 kcal/mol.

Take E12S: the “folding stability dG” value was 1.34 kcal/mol.

Turning to F6Q, the “folding stability dG” value turned out to be 0.462 kcal/mol.

Regarding F6A, the “folding stability dG” value was found to be 0.316 kcal/mol.

As to F6W, the “folding stability dG” value is 2.18 kcal/mol.

Take F6L: the “folding stability dG” value was found to be 0.489 kcal/mol.

For the variant D48V, the “folding stability dG” value is 1.18 kcal/mol.

For D48E, the “folding stability dG” value was 1.48 kcal/mol.

Regarding D48N, the “folding stability dG” value came to 1.84 kcal/mol.

With G51T, the “folding stability dG” value was found to be 0.424 kcal/mol.

On to G51I, for which the “folding stability dG” value was 0.064 kcal/mol.

For D39K, the “folding stability dG” value was 1.48 kcal/mol.

For D39P, the “folding stability dG” value was -0.067 kcal/mol.

On to D39L, for which the “folding stability dG” value came out at 1.3 kcal/mol.

With A47V, the “folding stability dG” value is 1.91 kcal/mol.
